We go through 1 substance from patent publication EP4772624A1.

The test addresses human IgG1 antibody against KLH (keyhole limpet hemocyanin). Kind of test: cell-based or functional assay.

Regarding “wild-type IdeZ-mouse Fc fusion protein (from UniProt P01868 103-324)”, the cleavage of human IgG1 antibody (SDS-PAGE, reducing; 37 C, 2 h): highest concentration ratio of antibody to fusion protein at which cleavage was confirmed (times (antibody to fusion protein)) is 33.
